22 molecules from US20040258656, “High affinity TGFbeta nucleic acid ligands and inhibitors” (published 2004) can be followed below.

Like-named read-outs stand apart in the source and are kept apart here.

By Kd is commonly meant the constant that tells how readily two partners part at equilibrium. Read a high Kd as a looser complex. By Ki is commonly meant the dissociation constant of the complex between target and ligand, obtained from inhibition or displacement.

The target of data set [1] is T1, TGFβ2 (transforming growth factor beta 2) (Homo sapiens, UniProt P61812 SEQ:1-112).
T1 sequence: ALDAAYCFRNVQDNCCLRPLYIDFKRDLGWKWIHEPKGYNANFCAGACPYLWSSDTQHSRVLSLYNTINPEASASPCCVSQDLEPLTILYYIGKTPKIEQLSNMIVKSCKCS
Description: filter. To be noted: chain copies: 2 (inferred, homodimer).

Data set [2] addresses T1, TGFβ2 (transforming growth factor beta …). Description: filter; Table 18 footnote states ~1 nM; Ki ~10 nM. To be noted: chain copies: 2 (inferred, homodimer).
The target is the same in data set [3]. Description: filter. To be noted: chain copies: 2 (inferred, homodimer). The source holds these as a separate data set.
For data set [4] the target is unchanged. Description: filter; 37C; Ki 230 nM in cell assay. To be noted: chain copies: 2 (inferred, homodimer). As for the experimental part: (§1) The binding activity of individual ligands was determined by measuring the equilibrium dissociation constants using nitrocellulose partitioning of labeled RNA as a function of protein concentration. RNA was body-labeled or guanylated and then 5′-end labeled with γ-³²P ATP and T4 polynucleotide kinase. Binding reactions were set at various protein concentrations (typically varied in either 3-fold or 10-fold increments) while maintaining the labeled RNA concentration constant at less than 0.1 nM, and incubated at 37° C. for 10 minutes. Protein-RNA complexes were partitioned away from uncomplexed RNA, by filtering the binding reactions through a nitrocellulose/cellulose acetated mixed matrix (0.45 μm pore size filter disks, type HA; Millipore, Co., Bedford, Mass.). For filtration, the filters were placed onto a vacuum manifold (12-well, Millipore, or 96-well BRL) and wetted by aspirating 1-5 ml of binding buffer. The binding reactions were aspirated through the filters, washed with 1-5 ml of binding buffer and counted in a scintillation counter (Beckmann).

Data set [5] shares this target. Briefly: cell_activity; mink lung epithelial cell proliferation; text p154 about 200 nM. To be noted: chain copies: 2 (homodimer, stated). As for the experimental part: (§2) The bioactivity of TGFβ2 nucleic acid ligands was measured with mink lung epithelial cells. Proliferation of these cells is inhibited by TGFβ2. Human TGFβ2 was titrated on the cells and ³H-thymidine incorporation was measured. […] This inhibitory amount of TGFβ2 along with varying amounts of nucleic acid ligand (typically 0.3 or 1 nM to 1 or 3 μM, in 3 fold increments) was used. Typically, cells were plated at 10E5/ml in 96-well plates in 100 μl MEM, 10 mM HEPES pH 7.4, 0.2% FBS. […] After incubation, the cells were lysed with 1% Triton X-100 and harvested onto GF/B filter plates in a Packard 96 well plate harvester, and ³H-thymidine incorporation in cellular DNA was quantitated by scintillation counting in MicroScint (Packard, Mariden, Conn.) in a Packard Top-Count. Data were plotted as % of maximum ³H-thymidine incorporation vs RNA concentration, and were fitted by the software Kaleidagraph (Synergy Software, Reading, Pa.) to the equation m3*(m0+m1+(m2)−((m0+m1+(m2))*(m0+m1+(m2))−4*(m0)*( m2)))\hat{ }0.5)/(2*(m2)); where m0 is the concentration of competitor RNA; m1 is the IC50, m2 is the concentration of TGFβ2, and m3 is the plateau value of the fraction of maximum ³H-thymidine incorporation. […]

Data set [6] shares this target. Briefly: filter. The note with it: chain copies: 2 (inferred, homodimer). This is another data set of the same source.
The target is the same in data set [7]. Description: filter; 37C; Ki 10 nM in cell assay. To be noted: chain copies: 2 (inferred, homodimer). As for the experimental part:
as §1

Data set [8] has the same target. Briefly: cell_activity; mink lung epithelial cell proliferation. To be noted: chain copies: 2 (homodimer, stated). As for the experimental part: as §2
Data set [9] shares this target. Described as above. The note with it: chain copies: 2 (inferred, homodimer). As for the experimental part: The bioactivity of TGFβ2 nucleic acid ligands was measured with mink lung epithelial cells. Proliferation of these cells is inhibited by TGFβ2. Human TGFβ2 was titrated on the cells and ³H-thymidine incorporation was measured. […] This inhibitory amount of TGFβ2 along with varying amounts of nucleic acid ligand (typically 0.3 or 1 nM to 1 or 3 μM, in 3 fold increments) was used. Typically, cells were plated at 10E5/ml in 96-well plates in 100 μl MEM, 10 mM HEPES pH 7.4, 0.2% FBS. […] After incubation, the cells were lysed with 1% Triton X-100 and harvested onto GF/B filter plates in a Packard 96 well plate harvester, and ³H-thymidine incorporation in cellular DNA was quantitated by scintillation counting in MicroScint (Packard, Mariden, Conn.) in a Packard Top-Count. Data were plotted as % of maximum ³H-thymidine incorporation vs RNA concentration, and were fitted by the software Kaleidagraph (Synergy Software, Reading, Pa.) to the equation m3*(m0+m1+(m2)−((m0+m1+(m2))*(m0+m1+(m2))−4*(m0)*( m2)))\hat{ }0.5)/(2*(m2)); where m0 is the concentration of competitor RNA; m1 is the IC50, m2 is the concentration of TGFβ2, and m3 is the plateau value of the fraction of maximum ³H-thymidine incorporation.

For data set [10] the target is unchanged. Description: filter. The note with it: chain copies: 2 (inferred, homodimer). This is another data set of the same source.
The target is the same in data set [11]. Description: filter; 37C; Ki 30 nM in cell assay. The note with it: chain copies: 2 (inferred, homodimer). As for the experimental part:
as §1

Data set [12] has as its target T2, TGFβ1 (transforming growth factor beta 1) (Homo sapiens, UniProt P01137 SEQ:1-112). Description: bioactivity +++. To be noted: chain copies: 2 (inferred, homodimer).
The target in data set [13] is T2, TGFβ1 (transforming growth factor beta …).

T2 sequence (P01137 279-390): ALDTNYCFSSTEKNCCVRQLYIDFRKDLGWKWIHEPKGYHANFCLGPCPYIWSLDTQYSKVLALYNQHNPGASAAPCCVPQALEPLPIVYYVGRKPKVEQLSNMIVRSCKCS

For the molecule UGUGAAUAUUAGAGAGUCUGUAUAGCUCUACCCC (ssRNA, 2'-F C and U; 3'-3' dT) [NX22385], in data set [1], the binding signal is 0.4 x Kd of NX22284.

B1: NX22425 (ssRNA)
RNA: UGUGAAUAUUAGAGAGUCUGUAUAGCUCUACCCC
modifications: 2'-F C and U; 2'-OMe at lowercase a,g of UgUgaaUAUUagagagUCUGUAUAgCUCUaCCCC; 3'-3' dT
Regarding B1, the binding signal in [1] was 1.5 x Kd of NX22284.

B2: NX22424 (ssRNA)
RNA: B1 RNA
modifications: 2'-F C and U; 2'-OMe at lowercase a,g of UgUgAAUAUUaGagagUCUGUAUAgCUCUaCCCC; 3'-3' dT
With B2, the binding signal in data set [1] is 0.6 x Kd of NX22284.

With GGAGGUUAUUACAGAGUCUGUAUAGCUGUACUCC (ssRNA, 2'-F C and U; 3'-3' dT cap) [NX22284], the Kd in data set [2] is around 2 nM.

As to GGGGAGCGGCGUUGUUUAUGUAUAAGUCCGCUU (ssRNA, 2'-F C and U) [21a-4(ML-109)], in data set [3], the binding signal was > 100 x Kd of 21a-4.

On to GGGGAGCGGCGUUGUUUAGUCGUAUGUAUAUACUAAGU (ssRNA, 2'-F C and U) [21a-4(ML-111)], for which the binding signal in data set [3] is 30 x Kd of 21a-4.

B3: 14i-1 (ssRNA)
RNA: GGGAGGACGAUGCGGAAGUAACGUUGUAGUAAAAUUCGUUCUCUCGGCAUUUGGCCAGACGACUCGCCCGA
modifications: 2'-F C and U
In data set [4], B3 displayed an equilibrium dissociation constant (Kd) of around 10 nM.

B4: 14i-1 (ssRNA)
RNA: B3 RNA
modifications: 2'-F C and U; 2'-OH A and G
For B4, the inhibition constant Ki in data set [5] came out at 230 nM.

GGGGAGCGGCGUUGUUUAGUCGUAUGUAUAUACUAAGUCCGCUU (ssRNA, 2'-F C and U) [21a-4(ML-91)]: in data set [3], the binding signal is 1 x Kd of 21a-4.

GGGGAGCGGCGUUGUUUAGUCGUAUGUAUAUACUAAGUCCGC (ssRNA, 2'-F C and U) [21a-4(ML-110)]: the binding signal in [3] was 1 x Kd of 21a-4.

Turning to GGGAGGAGUAACGUUGUAGU (ssRNA, 2'-F C and U) [14i-1(ML-89)], the binding signal in data set [6] was > 100 x Kd of 14i-1.

B5: 21a-21 (ssRNA)
RNA: GGGAGGACGAUGCGGUUCAGGAGGUUAUUACAGAGUCUGUAUAGCUGUACUCCCCAGACGACUCGCCCGA
modifications: 2'-F C and U
Molecule B5 came in with a Kd in data set [7] of around 1 nM.

B6: 21a-21 (ssRNA)
RNA: B5 RNA
modifications: 2'-F C and U; 2'-OH A and G
Take B6: the Ki in data set [8] was 10 nM.

On to GGAGGUUAUUACAGAGUCUGUAUAGCUGUACUCCCC (ssRNA, 2'-F C and U; 3'-3' dT cap) [NX22283], for which, in data set [9], the Ki came to 10 nM. Further, in [10], the binding signal is 0.6 x Kd of NX22284.

On to GGGGAGCGGCGUUGUUUCGUAUGUAUAUAAGUCCGCUU (ssRNA, 2'-F C and U) [21a-4(ML-108)], for which, in [3], the binding signal was > 100 x Kd of 21a-4.

Take GGCGUUGUUUAGUCGUAUGUAUAUACUAAGUCCGCUUGUCCCCA (ssRNA, 2'-F C and U) [21a-4Δ5',3']: the binding signal in [3] was > 100 x Kd of 21a-4.

B7: 21a-4 (ssRNA)
RNA: GGGAGGACGAUGCGGCGUUGUUUAGUCGUAUGUAUAUACUAAGUCCGCUUGUCCCCAGACGACUCGCCCGA
modifications: 2'-F C and U
Turning to B7, the Kd in data set [11] is around 3 nM.

B8: 21a-4 (ssRNA)
RNA: B7 RNA
modifications: 2'-F C and U; 2'-OH A and G
On to B8, for which the inhibitory constant (Ki) in data set [8] came out at 30 nM.

Consider GGGGAGCGGCGUUGUUGAAAAGUCCGCUU (ssRNA, 2'-F C and U) [21a-4(ML-92)], for which the binding signal in data set [3] was > 100 x Kd of 21a-4.

Take GGGUGCCUUUUGCCUAGGUUGUGAUUUGUAACCUUCUGCCCA (ssRNA, 2'-F pyrimidines (library chemistry)) [CD70 (ChD70)]: the binding result in data set [12] is “binds”.

As for GGGUGCCUUUUGCCUAGGUUGUGAUUUGUAACCUUCUGCCCA (ssRNA, 2'-OMe purines at 1-3, 16-18, 21, 23-24, 28, 30-31 and 42; 3'-3' U) [ChD70-m17], the binding result in [12] is recorded as “binds”.

As to GGGUGCCUUUUGCCUAGGUUGUGAUUUGUAACCUUCUGCCCA (ssRNA, 2'-OMe purines at 21, 23-24, 28 and 30) [ChD70-m13], the binding result in data set [13] is “binds”.
